Measured values taken from patent US20130108641A1 (Sanofi, published 2013).

B1: anti-GITR antibody clone 2155 (murine) (antibody, V domains shown)
VH: EVKLVESGGGLVKPGGSLKLSCGASGFTISSYAMSWVRQSPEKRLEWVAIISTGGSTYYPDSVRGRFTISRDNARNSLYLQMSSLRSEDTAMYYCARVGGYYDSMDHWGQGTSVTVSS
VL: not shown
notes: Murine hybridoma antibody
B2: anti-GITR antibody clone 1649 (antibody, V domains shown)
VH: EVQLQQSGTVLAGPGTSVKMSCEASGYSFTTYWIHWIKQRPGQGLEWIGAIYPGNSDAGYNQKFKGKAKLTAVTSASTAYMELSSLTNEDSAVYYCTRSSTYPHFDYWGQGTTLTVSS
VL: DILLTQSPAILSVSPGERVSFSCRASQSIGTSIHWYQQRTNDSPRLLIKYASESISGIPSRFSGSGSGTDFTLNINSVESEDIADYYCQQTNNWPLTFGAGTKLELK
notes: Murine hybridoma antibody; also called 1649-GITR2; 1649 GITR-2
B3: anti-GITR antibody clone 1718 (antibody, V domains shown)
VH: QVQVQQSGPELVKPGASVRISCKASDYTFTNYYIHWVRQRPGQGLEWLGWIYPGKGYTNYNEKFKGKATLTADKSSSTAYMQFSSLTSEDSAVYFCASGYGNYYFPYWGQGTLVTVSA
VL: IQMTQSSSYLSVSLGGRVTITCKASDHIKNWLAWYQQKPGNVPRLLMSAATSLETGFPSRFSGSGSGKDFTLTITSLQTEDVATYYCQQYWSTPWTFGGGTKLEIK
notes: Murine hybridoma antibody; also called 1718-GITR2; 1718 GITR-2

Assays:
[1] = target: T1, human GITR-Fc fusion protein (human, UniProt Q9Y5U5 26-162); test: competition ELISA, GITRL coated, GITR-Fc 0.25 µg/mL pre-incubated with antibody
T1 construct: extracellular domain; also called hGITR-Fc; recombinant human GITR-Fc; not shown: Fc part
T1 sequence (looked up): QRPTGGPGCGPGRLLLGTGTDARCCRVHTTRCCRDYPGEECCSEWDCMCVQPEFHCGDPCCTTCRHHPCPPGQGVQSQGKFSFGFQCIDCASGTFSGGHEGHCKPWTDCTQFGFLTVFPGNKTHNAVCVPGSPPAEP
Protocol: The ability of anti-GITR antibodies to inhibit the binding of human GITRL to hGITR was assessed using a competition ELISA. Ninety-six well plates were coated with GITR-Ligand protein at 0.5 μg/well at 4° C., overnight. Wells were washed with washing buffer (PBS pH 7.4+0.05 Tween 20) and blocked with 200 μL of blocking buffer (PBS pH 7.4+0.05% Tween 20+1% BSA) for 1 hour at room temperature. Wells were then washed two times with washing buffer and exposed to 100 μL of pre-incubated mixtures of GITR-Fc at 0.25 μg/mL plus anti-GITR antibody in 2-fold serial dilutions starting at 10 μg/ml up to 12 dilutions for 1 hour at room temperature with agitation. Plates were washed four times with washing buffer and GITR-Ligand-bound recombinant human GITR-Fc was detected with the use of peroxidase-conjugated goat anti-human IgG-Fc (Sigma), followed by incubation with the TMB substrate (Interchim)
All antibodies generated using the methods disclosed herein were able to antagonize the binding of GITRL to GITR more potently than the prior art MAB689 antibody.

[2] = target: T2, human GITR expressed on cells (human, UniProt Q9Y5U5 26-241); test: Meso Scale assay, Sulfo-conjugated antibody on coated HEK293-Trex-hGITR cells
T2 construct: whole, on cells; Used for HEK293 transfectants and for PHA-stimulated human PBMCs; also called hGITR; cell surface hGITR
T2 sequence (looked up): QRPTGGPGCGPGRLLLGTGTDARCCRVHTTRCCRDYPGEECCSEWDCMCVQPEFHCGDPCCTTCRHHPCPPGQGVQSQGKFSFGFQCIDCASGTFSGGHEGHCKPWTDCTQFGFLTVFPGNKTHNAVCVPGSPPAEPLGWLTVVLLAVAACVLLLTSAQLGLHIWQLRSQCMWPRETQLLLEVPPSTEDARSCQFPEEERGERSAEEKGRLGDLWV
Protocol: The binding kinetics of anti-GITR antibodies to hGITR expressed on the surface of HEK293 cells were determined by Meso Scale assay. HEK293-Trex-hGITR cells (#2404) were coated at 25000 cells/well on a 96-well High Bind plate (MSD L15XB-3) for 2 hours at room temperature. Wells were washed 2 times with 150 μl/well of PBS and blocked with 150 μl/well of blocking solution for 30 min at room temperature. Following two washes with 150 μl/well of PBS, 25 μL/well of Sulfo-conjugated antibodies were added in 2-fold serial dilutions starting at 100 μg/ml up to 12 dilutions in assay diluent and incubated for 45 min at room temperature followed by two washes with PBS. The antibody binding was evaluated by adding 150 μl/well 1× Read buffer T without surfactant and read using the Mesoscale instrument.

[3] = target: T2, human GITR expressed on cells; test: cell-based or functional assay
[4] = target: T3, cynomolgus monkey GITR-Fc (cynomolgus monkey); test: SPR (BIAcore 2000), mAb captured on anti-mouse Fc, antigen injected
T3 construct: extracellular domain; also called cGITR-FC; cGITR
Protocol: (§1) The binding kinetics of several anti-GITR antibodies to recombinant human GITR (hGITR) and cynomolgus monkey GITR (cGITR) were determined by surface plasmon resonance assay using a BIAcore 2000 (BIAcore Inc., […].). Briefly, a CM5 BIAcore biosensor chip was docked into the instrument and activated with 250 μL of 1:1 NHS/EDC at room temperature. A rabbit anti-mouse Fc IgG1 mAb (BIAcore #BR-1005-14) (13.5 μg/mL in 0.05M acetate buffer, pH 5) was immobilized on the activated chips in Flow cell 1. The immobilization was carried out at a flow rate of 5 μL/min. The chip was then blocked by injection of 55 μL of ethanolamine-HCl, pH 8.5, followed by five washes with 50 mM NaOH, 1M NaCl. To measure the binding of anti-GITR mabs to the human GITR protein or cyno GITR protein, antibodies were used at 2 μg/mL in BIAcore running buffer (HBS-EP). Antigens (human GITR or cyno GITR) were injected from 3 to 1000 nM. Following completion of the injection phase, dissociation was monitored in a BIAcore running buffer at the same flow rate for 360 sec. The surface was regenerated between injections using 30 μL of 50 mM NaOH-1 M NaCl. Individual sensorgrams were analyzed using […].

[5] = target: T1, human GITR-Fc fusion protein; test: as above
Protocol: as §1

[6] = target: T2, human GITR expressed on cells; test: FACS, Alexa488-labeled antibody on PHA-stimulated human PBMCs
Protocol: (§2) Specifically, human or cynomolgus monkey peripheral blood mononuclear cells were isloated and diluted to 2×10^6/ml in RPMI-1640 medium containing 10% FBS. The cells were then stimulated with 5 ug/ml phytohaemagglutinin (PHA) for 72 hours in 6 well plates. […] The cells were then washed 2 times with FACS stain buffer (Becton Dickinson) and then co-stained with 50 ul of CD4-APC for 20 minutes in the dark at 4° C. The cells were then washed again 2 times with FACS stain buffer before being resuspended in 150 μL of FACS stain buffer (Becton Dickinson) and analyzed using a FACS Calibur instrument. from which binding curves were generated. Equilibrium dissociation constants (KD) for each antibody were determined from the binding curves.

[7] = target: T4, cynomolgus monkey GITR on PBMCs (cynomolgus monkey); test: FACS, Alexa488-labeled antibody on PHA-stimulated cynomolgus monkey PBMCs
T4 construct: whole, on cells; also called cynoGITR-expressing PBMCs
Protocol: as §2

[8] = target: T3, cynomolgus monkey GITR-Fc; test: SPR; KD on cGITR-Fc over KD on hGITR-Fc
Protocol: as §1

Binder	IC50 [1] [nM]	Kd [2] [nM]	IC50 of dose-dependent inhibition of NFkB signal transduction (luciferase reporter) [3] [nM]	Kd [4] [nM]	koff [4] [s⁻¹]	Kd [5] [nM]	koff [5] [s⁻¹]	Kd [6] [nM]	Kd [7] [nM]	Ratio cKD/hKD [8]
B1	0.96	0.35	0.15	2.27	0.00123	0.99	0.000508	0.476	0.353	2.3
B2	3.76	5.38	–	9.68	0.00021	1.84	7.44e-05	–	–	5.3
B3	1.02	0.857	–	3.35	0.000345	2.57	0.00038	4.13	–	1.3
